± gives the standard deviation.
Test: protein stability index of a GFP-peptide fusion (GPS, HEK-293T) (PSI 1-6); higher = more stable
[1] = treatment: DMSO, c terminus: a fixed tail appended
[2] = treatment: MLN4924 1 uM, 8 h, c terminus: a fixed tail appended
[3] = treatment: DMSO, c terminus: native
[4] = treatment: MLN4924 1 uM, 8 h, c terminus: native
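Note: 24-mer peptide tiles fused after GFP, lentivirally expressed, FACS-sorted into six equal bins by GFP/DsRed ratio, decoded by Illumina sequencing, PSI is the read-weighted mean bin number.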

Row | Sequence | protein stability index [1] | protein stability index [2] | protein stability index [3] | protein stability index [4]
1 | AVWGQCQVRIRYLGERRAEPHSLL [SPSB2] | 2.26 ± 0.23 | 2.19 ± 0.28 | – | –
2 | AVYFAEAEEAESHFSSIPDAFWWA [KCNA1] | 2.27 ± 0.4 | 2.53 ± 0.42 | – | –
3 | AVYLMTFLIVTVAWAAHTRLFQVV [TMEM175] | 3.17 ± 0.097 | 3.18 ± 0.2 | – | –
4 | CESDIWALGCVMYTMLLGRPPFET [PLK2] | 3.72 ± 0.55 | 3.59 ± 0.71 | – | –
5 | CGQPCSQKSGLIRHQKIHSGEKPY [ZNF649] | 3.02 ± 0.5 | 3.21 ± 0.28 | – | –
6 | CHLTPSIYTEFPDETLRSGELLNM [INTS3] | 3.04 ± 0.17 | 2.99 ± 0.24 | – | –
7 | CLAKGTFSDVTFILDDGTISAHKP [RHOBTB2] | 2.36 ± 0.27 | 2.46 ± 0.17 | – | –
8 | CMDQERLRRESTSQKEMDKAETKT [FCHO1] | 5.15 ± 0.65 | 5.21 ± 0.14 | – | –
9 | CPHCGDRTFYDPEPILCPCFMPN [PRAME] | – | – | 3.98 ± 0.25 | 3.99 ± 0.48
10 | CPWEPQKQPPWEFLQVLEPGARGL [SPAG8] | 3.11 ± 0.24 | 3.36 ± 0.11 | – | –
11 | CQALPYGPGYWMCCHRSQKGFPGC [FBXO34] | 2.35 ± 0.44 | 2.23 ± 0.32 | – | –
12 | CRKAKEIRKERKRLKLMQQNPAGE [ATE1] | 4 ± 0.25 | 4.37 ± 0.2 | – | –
13 | CSGVACLVKDNPQRSYFLRIFDIK [WASL] | 2.16 ± 0.34 | 2.27 ± 0.7 | – | –
14 | CSQGQQLATFSSDWEIQEDSRLMC [CCDC3] | 3.16 ± 0.073 | 3.03 ± 0.55 | – | –
15 | CTLPQLAIAWCLRNEGVSSVLLGA [KCNAB2] | 3.1 ± 0.63 | 2.89 ± 0.36 | – | –
16 | DAERDGVKVPTTLAEYCVKTKAPA [CDC34] | 5.13 ± 0.067 | 5.02 ± 0.26 | – | –
17 | DALRFTADVRSVLSRNLHQHRLW [CTDNEP1] | – | – | 2.6 ± 0.48 | 2.99 ± 0.26
18 | DDCSSTIVEDPQTKCEYMLNSMPK [ESRRG] | 4.87 ± 0.29 | 4.95 ± 0.22 | – | –
19 | DDFRTKYQTEQSLRQLVESDINSL [KRT33B] | 4.6 ± 0.2 | 4.39 ± 0.12 | – | –
20 | DDGTYSQVQCHSYTGYCWCVTPNG [SMOC2] | 2.48 ± 0.14 | 2.66 ± 0.47 | – | –
21 | DEALAIAALELLPRELFPPLFMAA [PRAME] | 2.78 ± 0.21 | 2.61 ± 0.55 | – | –
22 | DEALERCQILELLNAELEEKMMQE [CCDC89] | 5.17 ± 0.41 | 5.34 ± 0.22 | – | –
23 | DEIRWKYHSDTTPKIIESQRPPH [IQUB] | – | – | 4.25 ± 0.36 | 4.09 ± 0.29

Row | Sequence | protein stability index [1] | protein stability index [2] | protein stability index [3] | protein stability index [4]
24 | DERIFSLTRRLAHGEELRVSARSR [HAGHL] | 4.1 ± 0.33 | 4.12 ± 0.32 | – | –
25 | DFHLSIHSDMAAIVKAMASPESGL [DVL3] | 2.87 ± 0.21 | 2.85 ± 0.24 | – | –
26 | DFIHRHCQDQNVPVENFFVKCNGA [SDE2] | 2.83 ± 0.088 | 2.95 ± 0.34 | – | –
27 | DFSVSLKASGKNKHFKVQLVDNVY [NCK2] | 2.27 ± 0.25 | 2.25 ± 0.19 | – | –
28 | DFYREDEDEEEEEGGEGEKEGEGE [TRIM55] | 5.57 ± 0.57 | 5.79 ± 0.084 | – | –
29 | DGQYMGVAFRGLKGKKLYPVVSAV [SPSB1] | 2.36 ± 0.55 | 2.12 ± 0.48 | – | –
30 | DKDKSPESHKAKNESWIKSHFSRL [C10orf62] | 3.46 ± 0.25 | 3.48 ± 0.31 | – | –
31 | DKLALCHLELTRKLQDLIKDVLRY [FCHO1] | 2.9 ± 0.48 | 2.74 ± 0.43 | – | –
32 | DLAGLGSETPKSQVGTLLFRSRSR [CDC25B] | 3.83 ± 0.35 | 4.11 ± 0.35 | – | –
33 | DLAYQLQVAKTKQQIEEQRVQVQV [FLOT1] | 3.4 ± 0.19 | 3.73 ± 0.22 | – | –
34 | DLDAKIREALVLRSVRVRLLLSFW [PLD5] | 3.52 ± 0.33 | 2.53 ± 0.86 | – | –
35 | DLEAKEVTPRTALLTWTEPPVRPA [TNXB] | 4.61 ± 0.14 | 4.53 ± 0.23 | – | –
36 | DLHRQFPFHEMFVSRGGHGQQDLF [TBC1D10A] | 2.73 ± 0.17 | 2.8 ± 0.34 | – | –
37 | DLIDVDLIRGSTFAKAKPEIPWTS [PHTF1] | 2.25 ± 0.17 | 2.46 ± 0.22 | – | –
38 | DLLRNTHFRGVSLNLTRKLAQQLC [DYRK1B] | 2.35 ± 0.48 | 2.22 ± 0.3 | – | –
39 | DLPEVESLPRDRVLGFLIENFKGL [VPS39] | 3.27 ± 0.59 | 3.19 ± 0.34 | – | –
40 | DMMVMGRKPDPMCVFTYVQSLYNH [SMTNL2] | 2.28 ± 0.24 | 2.2 ± 0.34 | – | –
41 | DNPLDRPLVGQDEFFLEQTKKKGV [NOP53] | 5.25 ± 0.3 | 5.37 ± 0.22 | – | –
42 | DPLANGCQGVSEAAHRLARRLYHL [PSD2] | 3.24 ± 0.18 | 3.52 ± 0.059 | – | –
43 | DPTNWLRCYYYEDTISTIKSVAWE [NCF4] | 2.12 ± 0.47 | 2.47 ± 0.13 | – | –
44 | DQDEGEWGLDQEQVFSLGDGVSGG [ZBED1] | 5.57 ± 0.17 | 5.42 ± 0.12 | – | –
45 | DRGIKGDITPLMAAANGGHVKIVK [ANKRD17] | 4.42 ± 0.11 | 4.38 ± 0.085 | – | –
46 | DRIATTDDTTAMASASSSATGSFS [MAGEA10] | 5.2 ± 0.11 | 5.28 ± 0.09 | – | –

Row | Sequence | protein stability index [1] | protein stability index [2] | protein stability index [3] | protein stability index [4]
47 | DRRKKIARMGFNASSMLRKSQLGF [DCAF4] | 2.67 ± 0.34 | 2.84 ± 0.13 | – | –
48 | DSEEELAAFCPQLDDSTVARELAI [RETREG3] | 5.12 ± 0.28 | 5.24 ± 0.19 | – | –
49 | DSGVGASLTRSNRHRLRWHSFQSS [DLC1] | 3.03 ± 0.13 | 3.04 ± 0.21 | – | –
50 | DSIKDEDRTSLATFHEGKHNISHM [WDFY1] | 4.66 ± 0.23 | 4.59 ± 0.28 | – | –
51 | DTMRQINKKGFWSYGPVILVVLVV [TOR1AIP2] | 2.49 ± 0.48 | 2.42 ± 0.37 | – | –
52 | DVLENAFAPLLDEQYDLATKRVRQ [GOLPH3] | 3.43 ± 0.26 | 3.52 ± 0.5 | – | –
53 | DVYSFAIVIWGVLTQKKPFADEKN [RIPK4] | 2.61 ± 0.77 | 1.86 ± 0.072 | – | –
54 | EAAEGRNKNEVFYQCPDQMARNPA [FBXO3] | 5 ± 0.32 | 4.67 ± 0.52 | – | –
55 | EACKAFFKRTIQGSIEYSCPASNE [ESRRA] | 2.98 ± 0.19 | 3 ± 0.17 | – | –
56 | EADVNGLRRVLDELTLARTDLEMQ [KRT16] | 4 ± 0.35 | 4.07 ± 0.094 | – | –
57 | EAEAADSGAVGARRFLLCLYLVGF [MFSD9] | 2.79 ± 0.91 | 2.65 ± 0.71 | – | –
58 | EALAKQVASEMRFVQDLVRALEQE [DAPK3] | 2.95 ± 0.25 | 3.09 ± 0.54 | – | –
59 | EAQAFRALVQEKIQKRNQRQSGDR [WAS] | 4.5 ± 0.12 | 4.5 ± 0.13 | – | –
60 | EDENDLEELNNGEPQTEHQQESES [MIA2] | 5.57 ± 0.21 | 5.74 ± 0.12 | – | –
61 | EDLKGHVAETSGETIQGFWLLTKI [TPRG1] | 2.37 ± 0.59 | 2.07 ± 0.3 | – | –
62 | EDVLLLNFEEMRALLDSLPPPVES [KLHL14] | 3.34 ± 0.24 | 3.57 ± 0.41 | – | –
63 | EEDCAWSQELPPPDPGPSPEASHL [ZNF263] | 5.44 ± 0.25 | 5.58 ± 0.25 | – | –
64 | EEGSANRRPEDQELESLSAIEAEL [CHGA] | 5.59 ± 0.14 | 5.45 ± 0.095 | – | –
65 | EEHTTILRPSYTGLSSSSARFLSR [CDC14A] | 3.57 ± 0.12 | 3.7 ± 0.19 | – | –
66 | EEIKFYELGEEAMEKFREDEGFIK [KCNA1] | 4.71 ± 0.36 | 4.84 ± 0.14 | – | –
67 | EELEDSKALLYLPIAPEVEDPEEN [RBBP5] | 5.5 ± 0.6 | 5.24 ± 0.42 | – | –
68 | EEVPEAYVDIHTGLSGSGVAFVCA [PYCR3] | 2.76 ± 0.53 | 2.66 ± 0.43 | – | –
69 | EFGALMSNYSLPPPLPTYHVLLEG [TRIM29] | 2.7 ± 0.98 | 2.15 ± 0.33 | – | –

Row | Sequence | protein stability index [1] | protein stability index [2] | protein stability index [3] | protein stability index [4]
70 | EFIQEIRRQLEACQRERAFSVKFE [OAS1] | 2.29 ± 0.31 | 2.27 ± 0.56 | – | –
71 | EFKAAFDMFDADGGGDISVKELGT [TNNC2] | 4.16 ± 0.13 | 4.63 ± 0.11 | – | –
72 | EFMKTLEKTGPQLTSRIKGDWIGL [DENND6A] | 2.06 ± 0.23 | 2.23 ± 0.25 | – | –
73 | EGDVLDTLEALGYKGPLLEEQALT [FAM98B] | 4.36 ± 0.34 | 4.35 ± 0.12 | – | –
74 | EGFLFVFGGQDENKQTLSSGEKYD [GAN] | 3.11 ± 0.28 | 3.73 ± 0.64 | – | –
75 | EGKTKKGVLEAPDTQVNPVGSVSV [FBXO34] | 5.08 ± 0.17 | 5.14 ± 0.11 | – | –
76 | EGMDRWIKKIEEHAPGVPKILVGN [RAB40A] | 3.41 ± 0.18 | 3.21 ± 0.31 | – | –
77 | EGSRSSGSNRSGSDRRKEKDPKAG [DVL3] | 5.38 ± 0.15 | 5.5 ± 0.2 | – | –
78 | EGYEFCHNRKVLTIFSASNYYEVG [PPEF2] | 2.31 ± 0.44 | 2.05 ± 0.44 | – | –
79 | EGYQALYHAVVEPMLWNPSGTPKR [C22orf31] | 2.39 ± 0.28 | 2.79 ± 0.61 | – | –
80 | EHYWEVRYEPDSKAFGVGVAYRSL [FSD1] | 2.06 ± 0.29 | 2.25 ± 0.33 | – | –
81 | EIIPINVNNNYEHRHTSHLGHAVL [SPRY1] | 2.34 ± 0.15 | 2.43 ± 0.3 | – | –
82 | EIKDLILPKISDPNFVKDLEEDLY [PI4K2A] | 3.16 ± 0.5 | 3.12 ± 0.38 | – | –
83 | EILLDFVYTETVHVTVENVQELLP [KLHL12] | 2.31 ± 0.59 | 2.4 ± 1.3 | – | –
84 | ELEKSGHGQAGQRQDPRPHGPQLP [ZBED2] | 5.01 ± 0.25 | 5.28 ± 0.055 | – | –
85 | ELERCRQQAGLLVTGEKEEPSRSA [PPEF2] | 4.95 ± 0.27 | 5.11 ± 0.86 | – | –
86 | ELFKELSINVMKQLIGSSNLFVMQ [GMCL1] | – | 3.95 ± 0.43 | – | –
87 | ELLTDKSCQSFISWTGDGWEFKLS [ETS1] | 2.24 ± 0.28 | 2.55 ± 0.37 | – | –
88 | EMHTSRDHSSQSEEEVVEGEKEVE [BNIP3L] | 5.682 ± 0.045 | 5.59 ± 0.16 | – | –
89 | EMSLAEELNHGRQGENQEHLVIAE [FATE1] | 5.44 ± 0.12 | 5.2 ± 0.24 | – | –
